B1: TPD52L2 (parent)
chain: EAEEEELRAELTKVEEEIVTLRQV

Variants of: B1
Experiment: protein stability index of a GFP-peptide fusion (GPS, HEK-293T) (PSI 1-6); higher = more stable
Details: c terminus: a fixed tail appended
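Further: lentivirally expressed fusions sorted by FACS into six bins by GFP to DsRed ratio, PSI derived from sequencing read proportions per bin multiplied by bin number.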

Compared with EAEEEELRAELTKVEEEIVPLRQV [T20P], EAEEEELRAELTKVEEEIVMLRQV [T20M] is lower in protein stability index: 4.98 for the first, 2.92 for the second.

Compared with EAEEEELRAELTKVEEEIVCLRQV [T20C], EAEEEELRAELTKVEEEIVDLRQV [T20D] is higher in protein stability index: 3.46 for the first, 5.3 for the second.

First: EAEEEELRAELTKVEEEIVVLRQV [T20V]
Second: EAEEEELRAELTKVEEEIVELRQV [T20E]
The protein stability index of the first is higher: 3.92 for the first, 3.84 for the second.

Compared with EAEEEELRAELTKVEEEIVHLRQV [T20H], EAEEEELRAELTKVEEEIVILRQV [T20I] is lower in protein stability index: 3.56 for the first, 3.06 for the second.

First: EAEEEELRAELTKVEEEIVLLRQV [T20L]
Second: EAEEEELRAELTKVEEEIVSLRQV [T20S]
The protein stability index of the first is lower: 2.91 for the first, 3.56 for the second.

Going from EAEEEELRAELTKVEEEIVQLRQV [T20Q] to EAEEEELRAELTKVEEEIVGLRQV [T20G], the protein stability index falls from 4.04 to 3.86.

Going from EAEEEELRAELTKVEEEIVRLRQV [T20R] to EAEEEELRAELTKVEEEIVFLRQV [T20F], the protein stability index falls from 3.3 to 2.85.

First: EAEEEELRAELTKVEEEIVNLRQV [T20N]
Second: EAEEEELRAELTKVEEEIVKLRQV [T20K]
The protein stability index of the first is lower: 3.34 for the first, 3.44 for the second.

First: EAEEEELRAELTKVEEEIVALRQV [T20A]
Second: EAEEEELRAELTKVEEEIDTLRQV [V19D]
The protein stability index of the first is lower: 3.9 for the first, 4.82 for the second.

Going from EAEEEELRAELTKVEEEIWTLRQV [V19W] to EAEEEELRAELTKVEEEIPTLRQV [V19P], the protein stability index rises from 2.54 to 5.45.

First: EAEEEELRAELTKVEEEILTLRQV [V19L]
Second: EAEEEELRAELTKVEEEIQTLRQV [V19Q]
The protein stability index of the first is higher: 3.69 for the first, 3.04 for the second.

Going from EAEEEELRAELTKVEEEIMTLRQV [V19M] to EAEEEELRAELTKVEEEIATLRQV [V19A], the protein stability index rises from 3.52 to 3.96.

First: EAEEEELRAELTKVEEEIFTLRQV [V19F]
Second: EAEEEELRAELTKVEEEIRTLRQV [V19R]
The protein stability index of the first is lower: 3.27 for the first, 3.88 for the second.

Compared with EAEEEELRAELTKVEEEITTLRQV [V19T], EAEEEELRAELTKVEEEIHTLRQV [V19H] is lower in protein stability index: 4.44 for the first, 3.9 for the second.

Going from EAEEEELRAELTKVEEEISTLRQV [V19S] to EAEEEELRAELTKVEEEIGTLRQV [V19G], the protein stability index rises from 3.98 to 4.79.

Going from EAEEEELRAELTKVEEEIITLRQV [V19I] to EAEEEELRAELTKVEEEICTLRQV [V19C], the protein stability index rises from 2.96 to 3.78.

First: EAEEEELRAELTKVEEEIETLRQV [V19E]
Second: EAEEEELRAELTKVEEEIKTLRQV [V19K]
The protein stability index of the first is higher: 4.21 for the first, 3.89 for the second.

First: EAEEEELRAELTKVEEEIYTLRQV [V19Y]
Second: EAEEEELRAELTKVEEEINTLRQV [V19N]
The protein stability index of the first is lower: 3.71 for the first, 4.51 for the second.

First: EAEEEELRAELTKVEKEIVTLRQV [E16K]
Second: EAEEEELRAELTKVECEIVTLRQV [E16C]
The protein stability index of the first is lower: 3.25 for the first, 3.82 for the second.

Going from EAEEEELRAELTKVEVEIVTLRQV [E16V] to EAEEEELRAELTKVELEIVTLRQV [E16L], the protein stability index falls from 3.27 to 3.06.

Compared with EAEEEELRAELTKVETEIVTLRQV [E16T], EAEEEELRAELTKVEREIVTLRQV [E16R] is lower in protein stability index: 4.33 for the first, 2.79 for the second.

Going from EAEEEELRAELTKVESEIVTLRQV [E16S] to EAEEEELRAELTKVEHEIVTLRQV [E16H], the protein stability index rises from 3.46 to 3.87.

Compared with EAEEEELRAELTKVEGEIVTLRQV [E16G], EAEEEELRAELTKVEYEIVTLRQV [E16Y] is lower in protein stability index: 4.84 for the first, 1.82 for the second.

Compared with EAEEEELRAELTKVENEIVTLRQV [E16N], EAEEEELRAELTKVEWEIVTLRQV [E16W] is lower in protein stability index: 3.93 for the first, 2.66 for the second.

First: EAEEEELRAELTKVEIEIVTLRQV [E16I]
Second: EAEEEELRAELTKVEDEIVTLRQV [E16D]
The protein stability index of the first is lower: 2.61 for the first, 4.17 for the second.

First: EAEEEELRAELTKVEPEIVTLRQV [E16P]
Second: EAEEEELRAELTKVEQEIVTLRQV [E16Q]
The protein stability index of the first is higher: 4.79 for the first, 3.52 for the second.

Compared with EAEEEELRAELTKVEFEIVTLRQV [E16F], EAEEEELRAELTKVEMEIVTLRQV [E16M] is lower in protein stability index: 2.76 for the first, 2.59 for the second.

Going from EAEEEELRAELTKVEAEIVTLRQV [E16A] to EAEEEELRAELTKVYEEIVTLRQV [E15Y], the protein stability index falls from 3.85 to 3.24.

First: EAEEEELRAELTKVEEAIVTLRQV [E17A]
Second: EAEEEELRAELTKVEEHIVTLRQV [E17H]
The protein stability index of the first is higher: 4.14 for the first, 3.44 for the second.

Going from EAEEEELRAELTKVEEKIVTLRQV [E17K] to EAEEEELRAELTKVEEGIVTLRQV [E17G], the protein stability index rises from 4.67 to 5.32.

First: EAEEEELRAELTKVEEDIVTLRQV [E17D]
Second: EAEEEELRAELTKVEERIVTLRQV [E17R]
The protein stability index of the first is higher: 5.55 for the first, 4.62 for the second.

First: EAEEEELRAELTKVEEYIVTLRQV [E17Y]
Second: EAEEEELRAELTKVEEFIVTLRQV [E17F]
The protein stability index of the first is lower: 2.35 for the first, 2.87 for the second.

Compared with EAEEEELRAELTKVEEPIVTLRQV [E17P], EAEEEELRAELTKVEEWIVTLRQV [E17W] is lower in protein stability index: 4.66 for the first, 2.28 for the second.

Compared with EAEEEELRAELTKVEEIIVTLRQV [E17I], EAEEEELRAELTKVEELIVTLRQV [E17L] is higher in protein stability index: 3.46 for the first, 4.24 for the second.

First: EAEEEELRAELTKVEETIVTLRQV [E17T]
Second: EAEEEELRAELTKVEESIVTLRQV [E17S]
The protein stability index of the first is higher: 4.63 for the first, 4.29 for the second.

Compared with EAEEEELRAELTKVEEVIVTLRQV [E17V], EAEEEELRAELTKVEEMIVTLRQV [E17M] is lower in protein stability index: 4.05 for the first, 4.02 for the second.

First: EAEEEELRAELTKVEECIVTLRQV [E17C]
Second: EAEEEELRAELTKVEEQIVTLRQV [E17Q]
The protein stability index of the first is higher: 4.63 for the first, 3.86 for the second.

Compared with EAEEEELRAELTKVEENIVTLRQV [E17N], EAEEEELRAELTKVEEEEVTLRQV [I18E] is higher in protein stability index: 4.54 for the first, 5.86 for the second.

Going from EAEEEELRAELTKVEEERVTLRQV [I18R] to EAEEEELRAELTKVEEEWVTLRQV [I18W], the protein stability index falls from 5.71 to 5.09.

Going from EAEEEELRAELTKVEEEPVTLRQV [I18P] to EAEEEELRAELTKVEEEKVTLRQV [I18K], the protein stability index falls from 5.69 to 5.19.

Compared with EAEEEELRAELTKVEEEFVTLRQV [I18F], EAEEEELRAELTKVEEEYVTLRQV [I18Y] is higher in protein stability index: 4.52 for the first, 5.12 for the second.

First: EAEEEELRAELTKVEEECVTLRQV [I18C]
Second: EAEEEELRAELTKVEEESVTLRQV [I18S]
The protein stability index of the first is lower: 4.55 for the first, 5.45 for the second.

First: EAEEEELRAELTKVEEEAVTLRQV [I18A]
Second: EAEEEELRAELTKVEEEDVTLRQV [I18D]
The protein stability index of the first is higher: 5.93 for the first, 5.66 for the second.

Going from EAEEEELRAELTKVEEETVTLRQV [I18T] to EAEEEELRAELTKVEEEVVTLRQV [I18V], the protein stability index rises from 5.19 to 5.35.

Compared with EAEEEELRAELTKVEEEQVTLRQV [I18Q], EAEEEELRAELTKVEEENVTLRQV [I18N] is lower in protein stability index: 5.41 for the first, 4.93 for the second.

First: EAEEEELRAELTKVEEEGVTLRQV [I18G]
Second: EAEEEELRAELTKVEEELVTLRQV [I18L]
The protein stability index of the first is higher: 5.67 for the first, 3.92 for the second.

Compared with EAEEEELRAELTKVEEEMVTLRQV [I18M], EAEEEELRAELTKVEEEHVTLRQV [I18H] is higher in protein stability index: 5.11 for the first, 5.24 for the second.

Source: the supplement of paper PMC10567573
